Assay results from US20170306049A1 (YEDA RESEARCH AND DEVELOPMENT, published 2017).

Experiments:
[1] = target: T1, HER3 fused with SNAP-Tag, expressed on HEK 293 cells and labelled with Lumi4-Tb (human, UniProt P21860 20-1342, SNAP-tag labelled with BG-Lumi4(Tb)); experiment: Tag-lite FRET, d2-labelled mAb on HEK293 cells with Lumi4(Tb)-labelled HER3-SNAP-Tag
T1 construct: whole, on cells; the parts follow the printed name HER3-SNAP-Tag; also called HER3-SNAP-Tag; HEK293-HER3-SNAP-Lumi4-Tb cells; not shown: SNAP-Tag (CISbio Tag-lite plasmid)
T1 sequence (P21860 20-1342): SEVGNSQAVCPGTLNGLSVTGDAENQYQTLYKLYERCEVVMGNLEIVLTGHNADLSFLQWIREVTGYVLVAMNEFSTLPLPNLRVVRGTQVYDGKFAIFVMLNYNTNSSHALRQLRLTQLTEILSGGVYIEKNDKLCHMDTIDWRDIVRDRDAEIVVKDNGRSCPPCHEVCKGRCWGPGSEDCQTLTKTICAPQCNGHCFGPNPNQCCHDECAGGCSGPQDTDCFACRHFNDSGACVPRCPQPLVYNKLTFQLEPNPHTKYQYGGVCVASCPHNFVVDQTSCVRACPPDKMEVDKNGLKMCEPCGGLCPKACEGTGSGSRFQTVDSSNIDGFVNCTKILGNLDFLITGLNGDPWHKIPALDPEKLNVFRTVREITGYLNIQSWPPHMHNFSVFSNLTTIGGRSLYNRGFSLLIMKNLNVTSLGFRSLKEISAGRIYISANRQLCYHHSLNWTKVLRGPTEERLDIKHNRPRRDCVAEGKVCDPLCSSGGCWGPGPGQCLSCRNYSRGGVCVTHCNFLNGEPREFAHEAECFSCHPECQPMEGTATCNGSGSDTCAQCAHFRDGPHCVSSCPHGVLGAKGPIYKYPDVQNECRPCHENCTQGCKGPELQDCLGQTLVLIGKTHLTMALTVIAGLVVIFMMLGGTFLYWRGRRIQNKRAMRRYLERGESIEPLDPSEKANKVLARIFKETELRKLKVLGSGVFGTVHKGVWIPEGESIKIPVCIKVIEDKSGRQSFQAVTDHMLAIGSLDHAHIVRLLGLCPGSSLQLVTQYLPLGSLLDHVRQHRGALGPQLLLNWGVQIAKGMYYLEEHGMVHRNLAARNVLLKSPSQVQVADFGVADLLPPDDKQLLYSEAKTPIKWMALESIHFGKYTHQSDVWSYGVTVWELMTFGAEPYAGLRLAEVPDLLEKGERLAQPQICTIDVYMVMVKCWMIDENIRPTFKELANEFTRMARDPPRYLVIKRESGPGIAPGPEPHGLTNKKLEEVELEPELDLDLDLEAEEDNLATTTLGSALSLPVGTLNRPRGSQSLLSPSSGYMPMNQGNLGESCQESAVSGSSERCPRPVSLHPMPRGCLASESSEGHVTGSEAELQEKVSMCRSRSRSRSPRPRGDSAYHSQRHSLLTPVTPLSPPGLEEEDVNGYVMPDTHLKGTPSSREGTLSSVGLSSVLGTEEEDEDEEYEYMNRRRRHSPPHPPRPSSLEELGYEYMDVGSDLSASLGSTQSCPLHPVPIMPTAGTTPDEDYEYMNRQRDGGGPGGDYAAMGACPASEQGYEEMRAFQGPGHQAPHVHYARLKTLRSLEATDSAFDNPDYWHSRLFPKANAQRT
Description: FIGS. 3A-E show Kd determination of mAb to HER3 using the Tag-Lite technology. Cells are transfected with HER3-SNAP-Tag and labeled with BG-Lumi4(Tb), a SNAP-tag subtract. Following incubation with increasing concentrations of indicated d2 labeled mAb directed to HER3, the Kd was determined from the binding curve fitting. The binding curve was obtained by measuring the FRET between the donor Lumi4(Tb) and the acceptor d2-dye. The unspecific binding was evaluated by adding an excess of unlabelled Ab.
TABLE 2 Kd determination of indicated mAb to HER3 using the Tag- Lite technology. Cells were transfected with HER3-SNAP- Tag and labeled withBG-Lumi4(Tb), a SNAP-tag subtract. Following incubation with increasing concentrations of indicated d2 labeled mAb directed to HER3, the Kd was determined from the binding curve fitting. The binding curve was obtained by measuring the FRET between the donor Lumi4(Tb) and the acceptor d2-dye.

[2] = target: T1, HER3 fused with SNAP-Tag, expressed on …; experiment: Tag-lite FRET KD of Table 2, compared with the other mAbs
[3] = target: T2, IgB3 (recombinant HER3 extracellular domain fused to a human IgG Fc domain) (human, UniProt P21860 20-643); experiment: ELISA, IgB3-coated microplate, purified mAb, HRP anti-mouse IgG
T2 construct: extracellular domain; Secreted from HEK-293 cells, purified on protein G / protein A; not shown: Fc domain of a human IgG1
T2 sequence (P21860 20-643): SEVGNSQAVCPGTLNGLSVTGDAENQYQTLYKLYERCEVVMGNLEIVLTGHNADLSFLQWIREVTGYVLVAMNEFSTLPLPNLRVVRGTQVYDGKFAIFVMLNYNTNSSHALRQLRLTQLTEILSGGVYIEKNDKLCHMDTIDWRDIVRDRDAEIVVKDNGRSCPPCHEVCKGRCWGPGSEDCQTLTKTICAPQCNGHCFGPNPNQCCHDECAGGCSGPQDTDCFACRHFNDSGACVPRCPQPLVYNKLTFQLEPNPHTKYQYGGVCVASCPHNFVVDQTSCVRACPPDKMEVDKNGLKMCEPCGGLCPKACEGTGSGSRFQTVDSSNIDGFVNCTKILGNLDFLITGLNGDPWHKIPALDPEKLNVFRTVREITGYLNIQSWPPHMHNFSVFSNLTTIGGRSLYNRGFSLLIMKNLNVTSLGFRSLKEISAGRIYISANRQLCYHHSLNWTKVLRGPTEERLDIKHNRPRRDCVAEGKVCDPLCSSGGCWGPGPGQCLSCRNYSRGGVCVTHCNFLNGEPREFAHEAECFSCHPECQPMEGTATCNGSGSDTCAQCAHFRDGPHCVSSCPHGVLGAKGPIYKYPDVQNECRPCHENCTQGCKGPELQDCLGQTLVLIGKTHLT
Description: FIGS. 2A-D show monoclonal antibody targeting HER3 extracellular domain. (FIG. 2A) 96 well-plates were coated with 1.5 μg/ml of IgB3, blocked with PBS-BSA (1% weight/vol) and incubated for 1 h with various concentrations of purified mAbs under gentle shaking at RT. After washing, a second 1 h-incubation with HRP-labelled anti-mouse IgG was performed and followed by incubation with 2,2′-azino-bis (3-ethylbenzothiazoline-6-sulfonic acid) for 10 min. The OD at 415 nm was measured using by an ELISA microplate reader. […] After 2 washes, the cells were incubated for 1 h at 4° C. (in the dark) with a secondary anti-mouse IgG Ab coupled to AlexaFluor 488. The fluorescence intensity (F.I.) was measured on the LSRII flow cytometer. […] After 4 washes, the content bound to the beads was eluted and analyzed by immunoblotting (IB) with an antibody to HER3/ErbB-3.
The comparison of the capacity of purified mAbs to bind with IgB3 was evaluated using ELISA (FIG. 2A). […] Each antibody was labeled with the d2-dye, and by measuring the binding of the labeled-mAb to cells presenting Lumi4(Tb)-labeled HER3 using FRET, the KD was determined and reported in Table 2, below. The values obtained correlate with the different patterns of HER3 binding determined by FACS (FIGS. 2B and 2C), although they are distinct from the patterns of IgB3 binding determined using ELISA (FIG. 2A).

EGFR (ErbB1/HER1) = target: T3, EGFR (ErbB1/HER1) (human, UniProt P00533 25-1210); experiment: flow cytometry on NIH/3T3 cells presenting EGFR alone
T3 construct: whole, on cells; also called NIH/3T3-EGFR cells; NIH/3T3-R1
Description: (§1) FIGS. 4A-B show specificity of monoclonal antibodies directed to HER3. (FIG. 4A) NIH/3T3-EGFR, -HER2, -HER3 or -EGFR/HER4 cells were incubated with 25 μg/ml of each mAb for 1.5 h at 4° C. After 2 washes, the cells were incubated for 1 h at 4° C. (in the dark) with a secondary anti-mouse IgG Ab coupled to AlexaFluor 488. The fluorescence intensity (F.I.) was measured on the LSRII flow cytometer. The negative control is made using an irrelevant mouse IgG as primary Ab. The positive control are the following mAb 565 (anti-EGFR), mAb L26 (anti-HER2), mAb 9F7 (anti-HER3), mAb 77 (anti-HER4). (FIG. 4B) The panel presents the geometric mean and the CV of the fluorescence intensity.

HER2 (ErbB2) = target: T4, HER2 (ErbB2) (human, UniProt P04626 23-1255); experiment: flow cytometry on NIH/3T3 cells presenting HER2 alone
T4 construct: whole, on cells; also called NIH/3T3-HER2 cells; NIH/3T3-R2
Description: as §1

HER4 (ErbB4) = target: T5, HER4 (ErbB4) (human, UniProt Q15303 26-1308); experiment: flow cytometry on NIH/3T3 cells presenting EGFR and HER4
T5 construct: whole, on cells; also called NIH/3T3-EGFR/HER4 cells; NIH/3T3-R1R4
T5 sequence (Q15303 26-1308): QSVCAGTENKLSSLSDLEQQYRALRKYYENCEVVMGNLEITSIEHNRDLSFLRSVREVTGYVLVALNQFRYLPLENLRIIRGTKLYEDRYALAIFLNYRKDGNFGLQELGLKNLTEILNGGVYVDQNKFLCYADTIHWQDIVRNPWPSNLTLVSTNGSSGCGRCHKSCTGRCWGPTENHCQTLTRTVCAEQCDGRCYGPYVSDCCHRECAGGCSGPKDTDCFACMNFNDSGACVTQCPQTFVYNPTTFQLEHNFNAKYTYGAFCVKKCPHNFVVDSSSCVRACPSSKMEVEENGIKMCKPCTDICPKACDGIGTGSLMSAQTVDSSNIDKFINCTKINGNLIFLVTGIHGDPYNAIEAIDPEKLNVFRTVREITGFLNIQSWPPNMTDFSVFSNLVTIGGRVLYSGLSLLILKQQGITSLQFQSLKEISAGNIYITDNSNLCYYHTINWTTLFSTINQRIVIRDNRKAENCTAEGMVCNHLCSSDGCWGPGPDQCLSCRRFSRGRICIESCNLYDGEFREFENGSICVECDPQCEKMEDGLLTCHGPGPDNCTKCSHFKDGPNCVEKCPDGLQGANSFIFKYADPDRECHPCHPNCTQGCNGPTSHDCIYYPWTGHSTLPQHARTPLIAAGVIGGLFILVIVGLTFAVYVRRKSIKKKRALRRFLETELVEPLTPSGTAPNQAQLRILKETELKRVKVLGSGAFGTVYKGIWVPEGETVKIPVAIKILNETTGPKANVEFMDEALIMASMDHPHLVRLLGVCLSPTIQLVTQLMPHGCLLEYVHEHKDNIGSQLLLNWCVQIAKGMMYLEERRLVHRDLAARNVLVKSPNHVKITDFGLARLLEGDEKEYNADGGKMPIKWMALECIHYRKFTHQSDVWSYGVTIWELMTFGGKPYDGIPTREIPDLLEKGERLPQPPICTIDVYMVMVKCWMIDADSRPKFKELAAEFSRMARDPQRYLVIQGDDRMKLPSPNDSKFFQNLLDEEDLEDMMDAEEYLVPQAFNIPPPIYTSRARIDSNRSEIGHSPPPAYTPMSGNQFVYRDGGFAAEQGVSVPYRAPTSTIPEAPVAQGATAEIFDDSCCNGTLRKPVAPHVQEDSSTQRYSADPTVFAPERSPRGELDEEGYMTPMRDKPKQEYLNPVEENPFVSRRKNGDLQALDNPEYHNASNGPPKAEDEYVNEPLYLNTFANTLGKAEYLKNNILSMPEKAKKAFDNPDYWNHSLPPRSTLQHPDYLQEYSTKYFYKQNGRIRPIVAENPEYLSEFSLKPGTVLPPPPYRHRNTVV
Description: as §1

| Binder | Kd [1] [nM] | fold weaker affinity than the other mAbs [2] [fold] | EC50 [3] [nM] | binding result (EGFR (ErbB1/HER1)) | binding result (HER2 (ErbB2)) | binding result (HER4 (ErbB4)) |
| --- | --- | --- | --- | --- | --- | --- |
| anti-HER3 mAb NG33 (antibody, V domains shown) VH: DVQLQESGPGLVKPSQSLSLTCSVTGYSITSGFYWSWIRQFPGNKLEWMGYIAYDGTSNYNPSLKNRISITRDTSKNQFFLKLKSVTNEDTPTYYCARGGGYYGQLLDYWGQGTSVTVSS VL: DARMTQSPSSLSASLGDRVTISCRASQDISNYLNWYQQKPDGTVKVLIYNTAKLHSGVPSRFSGSGSGTDYSLTISNLEQEDFATYFCQQGKTLPWTFGGGTKLELK | 2.96 |  |  |  |  |  |
| anti-HER3 mAb NG83 (antibody, V domains shown) VH: QIQLVQSGPELKKRGETVKISCKASGYTFTNYGMNWVRQAPGKGLKCMGWINTYAGEPTYADDFKGRFAFSLDSSASTAYLQINNLKNEDMATYFCARGGITGAMDYWGQGTSVTVSS VL: DVVMTQKTSSLSTSLGDRVTISCRASQDIRNYLNWYQQKPDGTVKLLIYYTSRLHSGVPSRFSGSGSGTDYSLTISDLEQEDIATYFCQQGNTLPWTFGGGTKLAIK | > 14 | 10 |  |  |  |  |
| anti-HER3 mAb NG140 (antibody, V domains shown) VH: QVQLKESGPGLVKPSQSLSLTCSVTGYSITSGYYWNWIRQFPGNKLEWMGSIYYDGSNNYNPSLKNRISVTRDTSKNQFFLKLNSVTTEDTATYYCARDYDVGYAMDYWGQGASVTVSS VL: DIVLTQSSSYLSVSLGGRVTITCKASDHINNWLAWYQQKPGNAPRLLISGATSLETGVPSRFSGSGSGKDYTLSITSLQTEDVATYYCQQYWSIPWTFGGGTKLEIK | 6.12 |  | 16.8 |  |  |  |
| mAb XC252 (antibody, V domains shown, also called XC252-K2 (Lumi4 Tb cryptate labelled)) VH: EVQLQQSGAELVRPGVSVKISCKGSGYTFTDYAMHWVKQSHAKSLEWIGVISTYYGDPRDNQKFKGKATMTVDKSSSTAYMELARLTSEDSAIYYCARGDYDWYAIDYWGQGTSVTVSS VL: DVVMTQTPLSLPVSLGDQASISCRSSQSIVHSDGNTYLEWYLQKPGQSPKLLIYKVSNRFSGVPDRFSGSGSGTDFTLKISRVEAEDLGVYYCFQGSHVPPTFGGGTKLEIK | 1.09 |  | 0.21 | no binding (tested: 25 µg/ml) | no binding (tested: 25 µg/ml) | no binding (tested: 25 µg/ml) |
